# From IntAct's records for PubMed 21600204
# B1: Hemolysin expression-modulating protein Hha (Escherichia coli (strain K12)), P0ACE3 (parent)
# chain: MSEKPLTKTDYLMRLRRCQTIDTLERVIEKNKYELSDNELAVFYSAADHRLAELTMNKLYDKIPSSVWKFIR
# partner: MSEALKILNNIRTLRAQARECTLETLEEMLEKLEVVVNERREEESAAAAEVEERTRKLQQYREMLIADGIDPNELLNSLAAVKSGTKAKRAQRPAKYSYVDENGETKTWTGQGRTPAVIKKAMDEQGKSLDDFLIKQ
# B2: OriC-binding nucleoid-associated protein (Escherichia coli (strain K12)), P64467 (parent)
# chain: MTVQDYLLKFRKISSLESLEKLYDHLNYTLTDDQELINMYRAADHRRAELVSGGRLFDLGQVPKSVWHYVQ
# partner: B1 partner
# Variants of: B1
# Settings: with hns_ecoli hns
row,Variant,effect of a mutation on the interaction
1,MSEKPLTKTDYLMRLRRCQTIDTLERVIEKNKYELSDNELAVFYSAANHRLAELTMNKLYDKIPSSVWKFIR [D48N],disrupting interaction

# Variants of: B1
# Settings: with hns_ecoli hns
# Remark: another data set of the same source
row,Variant,effect of a mutation on the interaction
1,MSEKPLTKTDYLMRLRRCQTIDTLQRVIEKNKYELSDNELAVFYSAADHRLAELTMNKLYDKIPSSVWKFIR [E25Q],decreasing interaction

# Variants of: B2
# Settings: with hns_ecoli hns
row,Variant,effect of a mutation on the interaction
1,MTVQDYLLKFRKISSLESLEKLYDHLNYTLTDDQELINMYRAANHRRAELVSGGRLFDLGQVPKSVWHYVQ [D44N],disrupting interaction
